Drawing on US20180325981A1 (published 2018), this text covers Kd for 6 molecules.

Square brackets hold non-standard residues; d marks the D form. Nva = CCC[C@H](N)C(=O)O Some results are limits rather than exact numbers.

Test [1] deals with T1, purified recombinant ADIPOR1 (A88) (UniProt Q96A54 89-375).
T1 construct: range 89-375; Expressed in SF9 cells by baculovirus, solubilised in DDM, purified on anti-Flag beads (eluted with Flag peptide) and by size exclusion as monomer; amine-coupled to a CM5 chip; also called adiponectin receptor 1; adiponectin receptor ADIPOR1; not shown: Flag tag at the N-terminus
T1 sequence: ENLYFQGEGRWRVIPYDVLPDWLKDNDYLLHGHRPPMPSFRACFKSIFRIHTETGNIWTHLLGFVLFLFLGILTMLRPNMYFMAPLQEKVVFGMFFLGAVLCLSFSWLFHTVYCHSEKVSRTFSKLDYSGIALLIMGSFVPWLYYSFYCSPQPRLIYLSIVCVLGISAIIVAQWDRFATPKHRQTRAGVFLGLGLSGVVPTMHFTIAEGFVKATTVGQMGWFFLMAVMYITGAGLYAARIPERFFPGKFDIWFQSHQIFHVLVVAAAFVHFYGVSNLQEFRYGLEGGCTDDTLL
In words: SPR; recombinant ADIPOR1 amine-coupled to a CM5 chip, peptide injected. As for the experimental part:
(§1) In order to analyze the binding force between peptide and ADIPOR1, a purified recombinant ADIPOR1 (A88) was bound to a CM5 chip with 3000 RU or higher through amine coupling. Peptide was diluted with a running buffer (0.1% DDM, 0.005% CHS, 10 mM HEPES, 150 mM NaCl with pH 7.4) and injected into a SPR instrument at various concentrations to analyze the binding force. The affinity value was calculated using the affinity fitting or kinetics fitting method. In order to analyze peptide solubility, peptide stocks were prepared with DMSO, diluted in an appropriate buffer, and then undissolved precipitates were removed. The peptide concentrations were calculated by measuring the […] and A280 absorbance of each peptide.
Background: Surface plasmon resonance follows binding to a sensor surface in real time, without labels.

The target in test [2] is purified recombinant ADIPOR1 (A88) (UniProt Q96A54). In words: SPR, immobilised ADIPOR1.
The target in test [3] is T1, purified recombinant ADIPOR1 (A88). In words: SPR, ADIPOR1 amine-coupled to CM5 chip, peptide injected. As to the method:
as §1
With reference to FIGS. 3 and 4, surface plasmon resonance (SPR) experiments were performed in the present invention to measure the dissociation constant between the agonist peptide and the adiponectin receptor, particularly adiponectin receptor 1 (ADIPOR1). First, an expressed and purified adiponectin receptor ADIPOR1 was immobilized and its dissociation constant from candidate peptides was measured over a total of 4 rounds.

B1: 3-3 (peptide)
peptide: NIPGLWYFAY
notes: 3rd round synthetic peptide; also called peptide 3-3
For B1, the Kd (usually the equilibrium constant for the complex coming apart) in test [1] came to 30.7 µM.

B2: 3-4 (peptide)
peptide: NIPGLFYFAY
notes: 3rd round synthetic peptide; also called peptide 3-4
On to B2, for which the Kd in test [1] was determined as 23.2 µM.

B3: reference peptide ADP355 (peptide)
peptide: H-[dN]IP[Nva]LY[dS]FA[dS]-NH2
SMILES: CCC[C@H](NC(=O)[C@@H]1CCCN1C(=O)[C@@H](NC(=O)[C@H](N)CC(N)=O)[C@@H](C)CC)C(=O)N[C@@H](CC(C)C)C(=O)N[C@@H](Cc1ccc(O)cc1)C(=O)N[C@H](CO)C(=O)N[C@@H](Cc1ccccc1)C(=O)N[C@@H](C)C(=O)N[C@H](CO)C(N)=O
B3: the Kd in test [2] is greater than 100 µM.
On to FYFAYHPNIPGLFYF (Synthetic 4th round agonist peptide) [peptide 4-4], for which the Kd in test [3] was in the range of 2 to 4.3 µM.
On to WYFAYHPNIPGLWYF (Synthetic 4th round agonist peptide) [peptide 4-3], for which the Kd in test [3] was in the range of 6 to 10 µM.

B4: peptide 3-1 (peptide)
peptide: YYFAYHPNIPGLYYF
notes: Synthetic 3rd round agonist peptide designed for the adiponectin receptor
Regarding B4, in test [3], the Kd is no more than 16 µM.
